Measurements as given in paper PMC11189558, “Mutations found in cancer patients compromise DNA binding of the winged helix protein STK19”.

Assays:
Experiment in all cases: EMSA; 20 mM HEPES pH 7.4, 100 mM NaCl, 1 mM MgCl2, 1 mg/ml BSA, 2 mM DTT, 5% glycerol; 30 min on ice; native 5% PAGE in 1X TBE
Conditions in all cases: protein: recombinant; tags: GST cleaved; GPLGS left at N-terminus; blunt
[1] = biological target: STK19 R200E/K201E/K203E (human, UniProt P49842 31-254, R200E;K201E;K203E)
[2] = biological target: STK19 R215E/R216E (human, UniProt P49842 31-254, R215E;R216E)
Chain of STK19 R215E/R216E (P49842 31-254 R215E/R216E): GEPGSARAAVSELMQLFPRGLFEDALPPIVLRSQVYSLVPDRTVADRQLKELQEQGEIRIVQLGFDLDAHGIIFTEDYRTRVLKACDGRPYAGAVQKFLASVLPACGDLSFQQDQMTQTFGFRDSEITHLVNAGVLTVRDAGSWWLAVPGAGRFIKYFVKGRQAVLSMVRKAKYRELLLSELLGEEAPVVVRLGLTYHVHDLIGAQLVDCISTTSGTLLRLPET

[3] = biological target: STK19 K186E (human, UniProt P49842 31-254, K186E)
Chain of STK19 K186E (P49842 31-254 K186E): as the sequence (P49842 31-254 R215E/R216E) above, with K156E, E185R, E186R counted along it

Measured: binding result

Chain of STK19 R200E/K201E/K203E (P49842 31-254 R200E/K201E/K203E): as the sequence (P49842 31-254 R215E/R216E) above, with R170E, K171E, K173E, E185R, E186R counted along it

B1: 59 bp dsDNA (dsDNA)
DNA 1: GAGCTGCCGAATTCTACCAGTGCCTTGCTAGGACATCTTTGCCCACCTGCAGGTTCACC
DNA 2: GGTGAACCTGCAGGTGGGCAAAGATGTCCTAGCAAGGCACTGGTAGAATTCGGCAGCTC
no binding: all assays above
